Several values for one entry are separate records, joined by “and”; a condition that tells them apart may be missing. Identical values can stand only once.

The conditions of the data set: whole UniProt chain shown.
The mark [1] stands for this setting: Halobacterium salinarum (strain ATCC 700922 / JCM 11081 / NRC-1), pH 7, Thermal, DSC, phosphate 0.1 M.
[2] abbreviates: Salmonella typhimurium (strain LT2 / SGSC1412 / ATCC 700720), pH 9.01, Thermal, DSC, sodium tetraborate 1 mM.

B1: Bacteriorhodopsin wild type, P02945 (protein)
chain: MLELLPTAVEGVSQAQITGRPEWIWLALGTALMGLGTLYFLVKGMGVSDPDAKKFYAITTLVPAIAFTMYLSMLLGYGLTMVPFGGEQNPIYWARYADWLFTTPLLLLDLALLVDADQGTILALVGADGIMIGTGLVGALTKVYSYRFVWWAISTAAMLYILYVLFFGFTSKAESMRPEVASTFKVLRNVTVVLWSAYPVVWLIGSEGAGIVPLNIETLLFMVLDVSAKVGFGLILLRSRAIFGEAEAPEPSAGDGAAATSD
In the case of B1, under setting [1], the “unfolding enthalpy (calorimetric)” value was 50 kcal/mol and 86 kcal/mol and 104 kcal/mol; the “unfolding enthalpy (van 't Hoff)” value is 71 kcal/mol and 125 kcal/mol and 155 kcal/mol.

B2: Formate dehydrogenase wild type, O13437 (protein)
chain: MKIVLVLYDAGKHAADEEKLYGCTENKLGIANWLKDQGHELITTSDKEGETSELDKHIPDADIIITTPFHPAYITKERLDKAKNLKLVVVAGVGSDHIDLDYINQTGKKISVLEVTGSNVVSVAEHVVMTMLVLVRNFVPAHEQIINHDWEVAAIAKDAYDIEGKTIATIGAGRIGYRVLERLLPFNPKELLYYDYQALPKEAEEKVGARRVENIEELVAQADIVTVNAPLHAGTKGLINKELLSKFKKGAWLVNTARGAICVAEDVAAALESGQLRGYGGDVWFPQPAPKDHPWRDMRNKYGAGNAMTPHYSGTTLDAQTRYAEGTKNILESFFTGKFDYRPQDIILLNGEYVTKAYGKHDKK
As to B2, under “Candida boidinii”, the Tm amounted to 59 °C.

B3: FMN-dependent NADH:quinone oxidoreductase 1 wild type, Q88IY3 (protein)
chain: MKLLHIDSSILGDNSASRQLSREVVEAWKAADPSVEVVYRDLAADAIAHFSAATLVAAGTPEDVRDAAQAFEAKLSAETLEEFLAADAVVIGAPMYNFTVPTQLKAWIDRVAVAGKTFRYTEAGPQGLCGNKKVVLVSTAGGLHAGQPTGAGHEDFLKVFLGFIGITDLEIVRAHGLAYGPEQRSQAIDAAQAQIASELFAAA
With B3, the Tm (Pseudomonas putida (strain ATCC 47054 / DSM 6125 / CFBP 8728 / NCIMB 11950 / KT2440), Fluorescence spectroscopy) was determined as 47 °C.

B4: Alpha-lactalbumin wild type, P00711 (protein)
chain: MMSFVSLLLVGILFHATQAEQLTKCEVFRELKDLKGYGGVSLPEWVCTTFHTSGYDTQAIVQNNDSTEYGLFQINNKIWCKDDQNPHSSNICNISCDKFLDDDLTDDIMCVKKILDKVGINYWLAHKALCSEKLDQWLCEKL
For B4, the Tm (Bos taurus, pH 6, Thermal, DSC, Unknown) is 59 °C.

B5: Tryptophan synthase alpha chain wild type, P00929 (protein)
chain: MERYENLFAQLNDRREGAFVPFVTLGDPGIEQSLKIIDTLIDAGADALELGVPFSDPLADGPTIQNANLRAFAAGVTPAQCFEMLALIREKHPTIPIGLLMYANLVFNNGIDAFYARCEQVGVDSVLVADVPVEESAPFRQAALRHNIAPIFICPPNADDDLLRQVASYGRGYTYLLSRSGVTGAENRGALPLHHLIEKLKEYHAAPALQGFGISSPEQVSAAVRAGAAGAISGSAIVKIIEKNLASPKQMLAELRSFVSAMKAASRA
B5: under setting [2], the Tm came out at 46.2 °C and the “unfolding enthalpy (van 't Hoff)” value stood at 3.68 kcal/mol.

B6: wild type, Q72LK2 (protein)
chain: MEATLPVLDAKTAALKRRSIRRYRKDPVPEGLLREILEAALRAPSAWNLQPWRIVVVRDPATKRALREAAFGQAHVEEAPVVLVLYADLEDALAHLDEVIHPGVQGERREAQKQAIQRAFAAMGQEARKAWASGQSYILLGYLLLLLEAYGLGSVPMLGFDPERVKAILGLPSHAAIPALVALGYPAEEGYPSHRLPLERVVLWR
On to B6, for which the Tm (Thermus thermophilus (strain ATCC BAA-163 / DSM 7039 / HB27)) turned out to be 30 °C.
